Results from publication PMC9385563 (Molecules and Cells, 2022).
Where a chain is given by its changes, count along the chain named. Numbers in names are those of the source.

Columns and labels:
ABCB6-∆TMD0 [1] = molecular target: T1, ABCB6-∆TMD0 (Homo sapiens, UniProt Q9NP58); experiment: microscale thermophoresis, initial fluorescence change; assay type: binding
T1 sequence (Q9NP58 206-842): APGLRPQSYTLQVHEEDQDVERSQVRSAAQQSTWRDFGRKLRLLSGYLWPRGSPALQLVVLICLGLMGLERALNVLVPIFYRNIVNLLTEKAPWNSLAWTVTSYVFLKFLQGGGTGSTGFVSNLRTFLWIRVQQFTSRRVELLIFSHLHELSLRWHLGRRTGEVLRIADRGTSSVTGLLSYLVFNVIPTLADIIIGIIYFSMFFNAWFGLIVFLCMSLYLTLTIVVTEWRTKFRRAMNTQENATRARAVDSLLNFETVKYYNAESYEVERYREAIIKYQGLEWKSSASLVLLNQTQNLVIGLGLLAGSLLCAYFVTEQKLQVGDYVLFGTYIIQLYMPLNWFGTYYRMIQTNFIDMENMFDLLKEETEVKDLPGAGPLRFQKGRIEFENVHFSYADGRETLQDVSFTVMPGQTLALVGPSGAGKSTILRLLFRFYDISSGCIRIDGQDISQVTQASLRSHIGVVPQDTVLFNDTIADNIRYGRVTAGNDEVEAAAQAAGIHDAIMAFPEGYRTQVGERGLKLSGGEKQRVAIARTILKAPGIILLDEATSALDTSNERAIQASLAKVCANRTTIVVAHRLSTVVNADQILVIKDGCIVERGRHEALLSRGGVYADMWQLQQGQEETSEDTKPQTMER

ABCB6-∆TMD0 [2] = molecular target: T2, ABCB6-∆TMD0 (Homo sapiens, UniProt Q9NP58, R435A/R439A/R552A); experiment: as above; assay type: binding
T2 sequence (Q9NP58 206-842 R435A/R439A/R552A): T1 sequence (Q9NP58 206-842) with R230A, R234A, R347A

ABCB6-∆TMD0 [3] = molecular target: T3, ABCB6-∆TMD0 (Homo sapiens, UniProt Q9NP58, DEL318-324); experiment: as above; assay type: binding
T3 sequence (Q9NP58 with tags, fused parts or gaps DEL318-324): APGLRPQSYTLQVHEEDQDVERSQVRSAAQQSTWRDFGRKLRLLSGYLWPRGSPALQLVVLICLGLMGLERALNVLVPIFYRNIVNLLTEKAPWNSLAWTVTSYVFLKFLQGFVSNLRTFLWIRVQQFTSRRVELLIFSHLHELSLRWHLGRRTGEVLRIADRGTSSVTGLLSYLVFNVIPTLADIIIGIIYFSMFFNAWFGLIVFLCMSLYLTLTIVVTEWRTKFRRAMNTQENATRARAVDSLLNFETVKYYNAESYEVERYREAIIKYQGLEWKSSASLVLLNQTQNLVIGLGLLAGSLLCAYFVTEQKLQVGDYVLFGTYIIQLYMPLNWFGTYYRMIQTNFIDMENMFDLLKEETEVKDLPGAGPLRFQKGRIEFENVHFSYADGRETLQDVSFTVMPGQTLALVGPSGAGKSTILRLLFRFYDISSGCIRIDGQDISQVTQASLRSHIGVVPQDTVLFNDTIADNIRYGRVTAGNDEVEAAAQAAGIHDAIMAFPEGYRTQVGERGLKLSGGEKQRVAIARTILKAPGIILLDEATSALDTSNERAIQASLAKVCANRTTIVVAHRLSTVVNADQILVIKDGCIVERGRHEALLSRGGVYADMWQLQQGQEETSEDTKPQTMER

purified protein [4] = substrate: CC1=C(CCC(=O)O)c2cc3nc(cc4[nH]c(cc5[nH]c(cc1n2)c(C)c5CCC(=O)O)c(CCC(=O)O)c4C)C(CCC(=O)O)=C3C; experiment: purified protein; conditions: Km from stimulation of ATP hydrolysis, 37°C, Cymal-6/CHS
purified protein [5] = substrate: C=CC1=C(C)C2=Cc3c(C=C)c(C)c4[n]3[Fe]([Cl])[n]3c(c(C)c(CCC(=O)O)c3=CC3=NC(=C4)C(C)=C3CCC(=O)O)=CC1=N2; experiment: purified protein; conditions: Km from stimulation of ATP hydrolysis, 37°C
cryo-EM structure = molecular target: the molecule itself; experiment: cryo-EM structure

## CC1=C(CCC(=O)O)c2cc3nc(cc4[nH]c(cc5[nH]c(cc1n2)c(C)c5CCC(=O)O)c(CCC(=O)O)c4C)C(CCC(=O)O)=C3C [CPIII]
ABCB6-∆TMD0 [1]
  Kd: 8.2 ± 0.1 µM
ABCB6-∆TMD0 [2]
  Kd: 17.8 ± 3 µM
ABCB6-∆TMD0 [3]
  Kd: 14.1 ± 0.9 µM

B1: ABCB6-∆TMD0 (core region of human ABCB6, residues 206-842) (domain or fragment, UniProt Q9NP58 206-842, looked up)
chain: T1 sequence (Q9NP58 206-842)
Purified protein [4]
  Km: 19 ± 3.7 µM
  kcat: 25 min^–1
Purified protein [5]; with 1 mM GSH, Cymal-6/CHS
  Km: 3 ± 0.3 µM
  kcat: 36 min^–1
cryo-EM structure
  stoichiometry N: 2

B2: ABCB6-∆TMD0 (Homo sapiens; Y550A) (protein)
chain: T1 sequence (Q9NP58 206-842) with Y345A
Purified protein [5]; with GSH
  Km: 10 µM
